B1: NHERF-2 PDZ2 (N2P2) PDZ2, Q15599 (protein)
chain: LRPRLCHLRKGPQGYGFNLHSDKSRPGQYIRSVDPGSPAARSGLRAQDRLIEVNGQNVEGLRHAEVVASIKAREDEARLLVVDPETD
B2: MAGI-3 PDZ6 (M3P6) PDZ6, Q5TCQ9 (protein)
chain: GCYPVELERGPRGFGFSLRGGKEYNMGLFILRLAEDGPAIKDGRIHVGDQIVEINGEPTQGITHTRAIELIQAGGNKVLLLLRPGTGLI

Key:
[1] = molecular target: LPA2 10-mer (Homo sapiens)
[2] = molecular target: LPA2 6-mer (Homo sapiens); test: competition
FD1 = test: competition
FD2 = test: competition
CST = test: competition
RD1 = test: competition
RD3 = test: competition
FD3 = test: competition
CAT = test: competition
RD2 = test: competition
[3] = molecular target: Claudin23 10-mer (Homo sapiens)

Kd [1]	Ki [2]	Ki (FD1)	Ki (FD2)	Ki (CST)	Ki (RD1)	Ki (RD3)	Ki (FD3)	Ki (CAT)	Ki (RD2)	Kd (FD2 8-mer)	Kd [3]	Binder
11.5 µM	28.4 µM	14.2 µM	6.8 µM	54.8 µM	5.4 µM	4.6 µM	9.1 µM	254 µM	12.5 µM	3.6 µM	–	B1
–	47.4 µM	600 µM	> 1000 µM	–	1.8 µM	6.8 µM	> 1000 µM	–	2.7 µM	–	3.6 µM	B2

— article PMC4970318
